The supplement of paper PMC9876800

Test system: peptide library, one residue held at a place counted from the S/T acceptor
Experiment: relative phosphorylation of the sub-library (ratio to the mean residue at this position); higher = residue favoured
How it was run: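 Relative sub-library phosphorylation is a ratio to the mean residue at the same position. Purified recombinant kinases were incubated under kinase-specific conditions with biotinylated degenerate peptide sub-libraries, each fixing one residue at one position around a central Ser/Thr, using 50 μM peptide and 50 μM ATP spiked with γ-32P-ATP for 90 min. Spots captured on streptavidin membranes were phosphorimaged and quantified by densitometry.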

Sequence of PRKCZ, construct: Full length, human (Q05513 whole entry, looked up): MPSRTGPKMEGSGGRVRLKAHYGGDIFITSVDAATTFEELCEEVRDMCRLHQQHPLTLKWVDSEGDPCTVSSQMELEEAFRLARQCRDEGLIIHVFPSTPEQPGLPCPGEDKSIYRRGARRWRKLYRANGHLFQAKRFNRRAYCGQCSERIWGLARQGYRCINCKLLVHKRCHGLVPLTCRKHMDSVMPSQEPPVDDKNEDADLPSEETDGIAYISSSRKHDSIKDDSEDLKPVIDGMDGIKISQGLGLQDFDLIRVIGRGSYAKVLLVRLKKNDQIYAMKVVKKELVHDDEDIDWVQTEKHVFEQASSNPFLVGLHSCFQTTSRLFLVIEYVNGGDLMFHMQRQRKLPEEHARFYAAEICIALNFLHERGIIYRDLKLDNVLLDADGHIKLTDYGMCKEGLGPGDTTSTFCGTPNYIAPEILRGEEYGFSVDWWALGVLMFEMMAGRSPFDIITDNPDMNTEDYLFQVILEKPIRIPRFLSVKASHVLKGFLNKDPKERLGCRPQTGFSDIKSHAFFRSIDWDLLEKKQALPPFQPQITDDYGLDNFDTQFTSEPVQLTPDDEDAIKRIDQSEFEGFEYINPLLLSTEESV
Sequence of EIF2AK4, construct: aa191-1024, human (Q9P2K8 191-1024, looked up): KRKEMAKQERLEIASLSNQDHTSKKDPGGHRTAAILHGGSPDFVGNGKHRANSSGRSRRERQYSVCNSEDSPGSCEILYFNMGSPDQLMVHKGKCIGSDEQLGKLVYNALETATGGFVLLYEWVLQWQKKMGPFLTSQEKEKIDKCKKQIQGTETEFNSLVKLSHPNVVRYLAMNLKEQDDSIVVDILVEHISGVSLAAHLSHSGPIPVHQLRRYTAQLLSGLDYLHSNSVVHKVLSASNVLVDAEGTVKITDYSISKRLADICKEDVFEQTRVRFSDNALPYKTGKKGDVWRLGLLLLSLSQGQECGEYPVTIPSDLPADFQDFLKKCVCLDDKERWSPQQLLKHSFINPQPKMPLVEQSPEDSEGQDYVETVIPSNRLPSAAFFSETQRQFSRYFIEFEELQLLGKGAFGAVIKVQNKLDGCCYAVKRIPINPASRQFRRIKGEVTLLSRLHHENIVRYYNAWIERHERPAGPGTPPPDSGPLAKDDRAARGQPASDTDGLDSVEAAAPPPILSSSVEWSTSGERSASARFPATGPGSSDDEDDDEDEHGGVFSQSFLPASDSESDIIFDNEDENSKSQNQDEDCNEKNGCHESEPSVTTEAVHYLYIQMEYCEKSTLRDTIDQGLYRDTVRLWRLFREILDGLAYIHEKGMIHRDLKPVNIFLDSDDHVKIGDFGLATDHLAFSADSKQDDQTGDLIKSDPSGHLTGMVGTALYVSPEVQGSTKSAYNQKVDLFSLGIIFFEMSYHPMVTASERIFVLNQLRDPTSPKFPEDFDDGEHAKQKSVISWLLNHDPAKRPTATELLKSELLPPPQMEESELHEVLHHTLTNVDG

EIF2AK4, construct: aa191-1024, human (from UniProt Q9P2K8)
relative phosphorylation
Conditions | at +1 | at +2 | at +3 | at +4 | at -1 | at -2 | at -3 | at -4 | at -5
A fixed | 0.622 | 0.832 | 0.837 | 0.891 | 0.732 | 0.958 | 0.968 | 1.01 | 1.07
D fixed | 0.335 | 1.1 | 0.504 | 0.75 | 1.22 | 2.28 | 1.62 | 1.47 | 1.12
E fixed | 0.537 | 0.351 | 0.539 | 0.788 | 0.894 | 2.2 | 1.68 | 1.16 | 1.06
F fixed | 2.06 | 0.645 | 0.948 | 0.945 | 0.836 | 1.18 | 0.891 | 0.86 | 1.07
G fixed | 0.757 | 0.811 | 2.04 | 1.16 | 1.03 | 1.02 | 0.924 | 1.1 | 1.06
H fixed | 1.04 | 1.8 | 1.02 | 0.969 | 1.12 | 0.964 | 0.901 | 1.18 | 1.17
I fixed | 0.858 | 0.689 | 0.699 | 0.896 | 0.635 | 0.533 | 0.76 | 0.77 | 0.823
K fixed | 0.724 | 0.717 | 1.11 | 1.08 | 0.78 | 0.555 | 0.695 | 0.945 | 1.04
L fixed | 0.621 | 0.631 | 0.75 | 0.976 | 1.15 | 0.693 | 1.02 | 0.829 | 0.726
M fixed | 1.68 | 0.59 | 0.826 | 0.973 | 1.11 | 1.09 | 1.08 | 0.846 | 0.825
N fixed | 0.933 | 0.841 | 0.829 | 0.867 | 1.38 | 1.21 | 0.959 | 1.04 | 0.923
P fixed | 0.162 | 0.475 | 1.9 | 1.07 | 0.629 | 0.643 | 0.699 | 0.825 | 0.824
Q fixed | 1.28 | 0.611 | 0.774 | 0.811 | 1.26 | 0.968 | 0.976 | 0.997 | 0.881
R fixed | 1.03 | 1.98 | 1.28 | 1.2 | 1.08 | 0.654 | 0.844 | 0.882 | 1.26
V fixed | 0.996 | 0.773 | 0.74 | 0.849 | 0.961 | 0.52 | 0.727 | 0.838 | 0.926
W fixed | 1.24 | 1.29 | 0.998 | 1.62 | 1.04 | 0.698 | 1.16 | 1.25 | 1.25
Y fixed | 2.13 | 2.85 | 1.2 | 1.16 | 1.13 | 0.828 | 1.1 | 1 | 0.975
pThr fixed | 0.715 | 0.592 | 0.686 | 0.736 | 0.803 | 1.16 | 0.969 | 1.03 | 0.724
pTyr fixed | 0.656 | 0.789 | 0.83 | 1.55 | 1.43 | 0.652 | 1.01 | 0.867 | 0.881

PRKCZ, construct: Full length, human (from UniProt Q05513)
relative phosphorylation
Conditions | at +1 | at +2 | at +3 | at +4 | at -1 | at -2 | at -3 | at -4 | at -5
A fixed | 0.673 | 0.759 | 0.778 | 1 | 1.16 | 0.809 | 0.78 | 1.13 | 1.32
D fixed | 0.193 | 0.206 | 0.324 | 0.596 | 0.387 | 0.399 | 0.425 | 0.666 | 0.79
E fixed | 0.293 | 0.203 | 0.319 | 0.563 | 0.375 | 0.355 | 0.437 | 0.661 | 0.732
F fixed | 1.37 | 0.662 | 0.927 | 0.827 | 0.468 | 1 | 0.842 | 0.827 | 1.23
G fixed | 1.1 | 0.52 | 1.07 | 1.07 | 1.21 | 1.45 | 1.28 | 1.57 | 1.52
H fixed | 0.752 | 1.35 | 1.33 | 1.35 | 1.06 | 1.07 | 1.08 | 1.03 | 1.08
I fixed | 0.868 | 0.646 | 0.646 | 0.608 | 0.259 | 0.288 | 0.378 | 0.468 | 0.533
K fixed | 2.46 | 2.13 | 2.15 | 2.05 | 3.12 | 1.18 | 1.91 | 1.29 | 1.15
L fixed | 0.768 | 0.577 | 0.834 | 0.64 | 0.457 | 0.47 | 0.535 | 0.59 | 0.803
M fixed | 1.42 | 0.912 | 0.759 | 0.706 | 0.755 | 0.731 | 0.659 | 0.783 | 0.694
N fixed | 0.832 | 0.908 | 0.975 | 1.08 | 1.26 | 1.19 | 1.11 | 1.4 | 1.25
P fixed | 0.344 | 0.512 | 0.706 | 1.17 | 0.986 | 1.16 | 1.1 | 1.45 | 1.12
Q fixed | 1.23 | 0.916 | 0.978 | 1.14 | 1.19 | 0.983 | 1.08 | 1.04 | 0.788
R fixed | 2.39 | 4.07 | 2.08 | 1.34 | 2.43 | 2.99 | 3.2 | 1.45 | 1.31
V fixed | 0.844 | 0.682 | 0.671 | 0.703 | 0.406 | 0.342 | 0.415 | 0.483 | 0.607
W fixed | 0.61 | 0.803 | 1.28 | 1.13 | 0.579 | 0.973 | 0.909 | 1.33 | 1.23
Y fixed | 0.841 | 1.14 | 1.17 | 1.01 | 0.89 | 1.61 | 0.855 | 0.824 | 0.837
pThr fixed | 0.461 | 0.391 | 0.519 | 0.651 | 0.314 | 0.632 | 0.696 | 0.847 | 0.985
pTyr fixed | 0.363 | 0.396 | 0.623 | 0.538 | 0.451 | 0.621 | 0.831 | 0.761 | 0.857
